From patent US20260275304A1, “METHODS AND COMPOSITIONS FOR GLYPHOSATE TOLERANCE IN PLANTS” (Monsanto Technology LLC, priority 2023, published 2026)

What was measured:
[1] = tested on: wild-type S. cerevisiae BY4741; assay: Growth of wild-type yeast in glyphosate; type: cell-based, Saccharomyces cerevisiae; settings: 5 mM and 10 mM glyphosate
Source text: Previous research has primarily focused on E. coli as a chassis for selecting improved EPSP synthases. The present example details the development of S. cerevisiae as a model eukaryotic system for glyphosate resistance, thus requiring synthetically addicting this cell to the expression and activity of EPSPS in an effort to create a growth-based selection scheme. Yeast have previously been reported to be resistant to glyphosate.

transgenic maize plants [2] = assay: Maize transformation with glyphosate selection, plantlet recovery and quality checks; type: in vivo, Zea mays
Source text: Maize was used as a model system to test the functionality of the EPSPS variants because of detailed previous characterization of glyphosate tolerance in maize and a suitable transgenic plant generation protocol that relies on glyphosate. Plant transformation vectors were generated in which the native maize EPSPS sequence was used, which includes the native gene promoter elements, the native introns and exons and the native 3′ untranslated region and introduced mutations that corresponded to each of the selected amino acid changes. The native sequence was used to mimic as closely as possible how the selected EPSPS variants would perform if the variants were introduced directly in the genome without the help of strong expression elements. The following variants were selected for testing in a transgenic maize system: TIPS (as a control); TIPS-P126S-M217L-K296R; TIPS-P126S-K296R; T102I-P126S-K296R (where only the T102I change is present); P106S-P126S-K296R (where only the P106S change is present); and P126S-K296R (where neither of the TIPS changes are present).
Transgenic maize plants that expressed each of the six EPSPS variants were generated to determine if the variants conferred glyphosate tolerance to plants. The full DNA sequence encoding TIPS EPSPS (SEQ ID NO:1) was cloned from maize genomic DNA. In this sequence, the promoter and 5′ UTR are nucleotides 1:2556; the chloroplast transit peptide sequence is nucleotides 2557:2742; EXON 1 is nucleotides 2743:2856; INTRON 1 is nucleotides 2857:3384; EXON 2 is nucleotides 3385:3626; INTRON 2 is nucleotides 3627:3725; EXON 3 is nucleotides 3726:3879; INTRON 3 is nucleotides 3880:4152; EXON 4 is nucleotides 4153:4367; INTRON 4 is nucleotides 4368:4877; EXON 5 is nucleotides 4878:4995; INTRON 5 is nucleotides 4996:5155; EXON 6 is nucleotides 5156:5366; INTRON 6 is nucleotides 5367:5446; EXON 7 is nucleotides 5447:5508; INTRON 7 is nucleotides 5509:5617; EXON 8 is nucleotides 5618:5836; and the 3′ UTR is nucleotides 5837:6368. Mutations were then introduced into the EPSPS coding sequence in order to produce each of the six EPSPS variants to be tested. These mutated full genomic DNA sequences were then each cloned as a single expression cassette into plant transformation vectors.
Agrobacterium tumefaciens-mediated plant transformation was performed using methods known in the art. Glyphosate selection was used to select for transgenic events containing the transgene of interest and further screened for only those EPSPS variants that provided effective glyphosate tolerance in a plant cell. While all six EPSPS variants began the transformation process with the same amount of starting maize cellular material, there were differences in the number of small plantlets recovered that were capable of being transplanted to greenhouse soil media (Table 4). Transgenic events were further analyzed to determine transgene copy number. Healthy events with single copy of the transgene of interest were grown in the greenhouse soil media. Only three of the six EPSPS variants had more than one plant surviving. Up to twenty-five of these developing R0 plants were transplanted to larger pots and allowed to grow to maturity for seed collection in the greenhouse.

transgenic maize plants [3] = assay: Greenhouse glyphosate spray test on hybrid (hemizygous) transgenic maize; type: in vivo, Zea mays
Procedure: To further evaluate the performance of EPSPS variants for glyphosate tolerance, transgenic maize plants comprising a single copy of the transgene encoding the EPSPS variants TIPS-P126S-M217L-K296R or TIPS-P126S-K296R were grown to maturity. Homozygous transgenic plants were crossed with an inbred line to produce hybrid seeds.
Plants from the hybrid seeds (hemizygous for the transgenes) of two independent transformation events for each of the two variants were grown in the greenhouse for glyphosate spray test. Roundup® PowerMax3, a commercial formulation of glyphosate, was applied at the third leaf stage at two rates: 1120 gram/hectare (1× the field rate) and 2240 gram/hectare (2× the field rate). The controls included an untreated untransformed control without glyphosate treatment, an untransformed control sprayed with glyphosate, and a TIPS positive control both sprayed with glyphosate. Glyphosate herbicide injury (plant stunting, chlorosis, necrosis, malformation, and death) was assessed by visual inspection of the plants 18 days after herbicide treatment. Herbicide injury rate was presented on a scale of 0 to 100 with “0” being no visible crop injury and “100” being complete crop injury or death.

[4] = tested on: S. cerevisiae strain sKR-024; assay: Growth of synthetic yeast strain sKR-024 expressing EPSPS variants with or without glyphosate; type: cell-based, Saccharomyces cerevisiae; settings: for glyphosate tolerance in synthetic yeast host: mutants isolated from directed evolution
Procedure: EPSPS variants were re-cloned into a clean p416-Core1p backbone and transformed into strain sKR-024 as described above. Colonies were then picked in triplicate into YSC-Ura-Leu and outgrown for 2 days at 30° C. Cultures were then diluted back to OD 0.001 in yeast minimal media (YMM) containing varying amounts of glyphosate as indicated. Growth rate measurements were then obtained using an Infinite M200 PRO microplate reader (Tecan, Männedorf, Switzerland) with incubation at 30° C. for 72-120 hours depending on growth rate of selected variants.
To determine if this system could further corroborate observations from previous literature, the well-studied EPSPS mutants T102I and P106S, and the combined double mutant TIPS (T102I-P106S) were generated and complemented into this yeast system. These mutations were reported to result in varying degrees of glyphosate resistance.
Having established low copy number and weak promoter expression of EPSPS variants, it was sought to recharacterize phenotypes under field conditions that are used in planta. […] It has been reported previously that under standard glyphosate foliar application, 0.3 mM or more of glyphosate (gly) can accumulate in a plant's root nodules and meristems. […] These trends support reported literature of mutants P106S and TIPS grown in various plant hosts. As a result, the present synthetic yeast model system closely resembles in planta observations and thus can be used to select for dual-trait EPSPS variants aimed at both enzymatic efficiency and glyphosate resistance.
Select mutants isolated from the final directed evolution campaign with the improved selection strategy were further evaluated in assorted glyphosate concentrations to determine growth characteristics. Mutants isolated from an EPSPS background were evaluated in media containing 0 mM and 0.25 mM glyphosate with the latter being the concentration at which wild-type EPSPS cannot grow after 100 hours. […] The non-glyphosate mono selection highlighted in blue represents mutations resulting from 5 subcultures in 0 mM glyphosate. The low glyphosate dual selection highlighted in light green represents mutants resulting from an additional subculture into 0.5 mM glyphosate. Lastly, the high glyphosate dual selection highlighted in dark green represent mutations isolated after subcultures in increasing levels of glyphosate, up to 10 mM.

Molecule: O=C(O)CNCP(=O)(O)O [glyphosate, N-phosphonomethylglycine]
- growth inhibition [1]: slight growth inhibition

B1: TIPS-P126S-M217L-K296R: maize EPSPS variant, SEQ ID NO:10 (protein)
chain: AGAEEIVLQPIKEISGTVKLPGSKSLSNRILLLAALSEGTTVVDNLLNSEDVHYMLGALRTLGLSVEADKAAKRAVVVGCGGKFPVEDSKEEVQLFLGNAGIAMRSLTAAVTAAGGNATYVLDGVSRMRERPIGDLVVGLKQLGADVDCFLGTDCPPVRVNGIGGLPGGKVKLSGSISSQYLSALLMAAPLALGDVEIEIIDKLISIPYVEMTLRLLERFGVKAEHSDSWDRFYIKGGQKYKSPKNAYVEGDASSASYFLAGAAITGGTVTVEGCGTTSLQGDVKFAEVLEMMGARVTWTETSVTVTGPPREPFGRKHLKAIDVNMNKMPDVAMTLAVVALFADGPTAIRDVASWRVKETERMVAIRTELTKLGASVEEGPDYCIITPPEKLNVTAIDTYDDHRMAMAFSLAACAEVPVAIRDPGCTRKTFPDYFDVLSTFVKN
modifications: Zea mays
- Number of young plants passing quality control checks (transgenic maize plants [2]; in vivo): 13
- Number of plantlets generated (transgenic maize plants [2]; under glyphosate selection, same amount of starting material): 92
- tolerance to glyphosate (transgenic maize plants [3]; 2× field rate): full tolerance
- Average Injury At 1120 g/ha (transgenic maize plants [3]; Roundup PowerMax3, 1× field rate, 18 days after treatment, scale of 0 to 100): 0
- Average Injury At 2240 g/ha (transgenic maize plants [3]; Roundup PowerMax3, 2× field rate, 18 days after treatment, scale of 0 to 100): 0
- tolerance to glyphosate (transgenic maize plants [3]; equivalent 1× field dose): excellent tolerance
- growth in yeast minimal media without glyphosate ([4]; 0 mM glyphosate): high growth in non-glyphosate
- glyphosate tolerance in synthetic yeast host [4]: high glyphosate tolerance
- glyphosate tolerance in synthetic yeast host ([4]; listed as TIPS P126S/M217L/K296R): high glyphosate tolerance (even higher than TIPS)
